Experimental data: paper PMC9621272

Key:
Trypsin [1] = molecular target: Trypsin (UniProt P00760)
Trypsin [2] = molecular target: Trypsin (UniProt P00760); remark: listed apart in the source

Chain of UniProt P00760 (P00760 18-246): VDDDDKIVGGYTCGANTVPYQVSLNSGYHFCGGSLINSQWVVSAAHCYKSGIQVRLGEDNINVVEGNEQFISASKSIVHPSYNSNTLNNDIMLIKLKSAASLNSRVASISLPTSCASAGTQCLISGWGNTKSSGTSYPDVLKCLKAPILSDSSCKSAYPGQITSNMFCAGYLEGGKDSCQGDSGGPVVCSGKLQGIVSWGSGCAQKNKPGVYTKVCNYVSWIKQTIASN

trypsin inhibitor isolated from tamarind seeds (natural protein)
antitrypsin activity (%), substrate BApNa 1.25 mM, TTI 0.7 mg/mL after the gastric phase of simulated digestion (TTI remained intact) (Trypsin [1]): 96.6% | antitrypsin activity (%), substrate BApNa 1.25 mM, TTI intact 0.7 mg/mL, no digestion (Trypsin [1]): 96.3% | antitrypsin activity (%) of the eluate from Trypsin-Sepharose (Trypsin [2]): 97%
